Midpoint of the voltage dependence of inactivation, V1/2, of whole-cell currents in HEK293 cells co-expressing Kv2.1 and Kv6.4 (Kv2.1 alone: −22.6 mV) data for one molecule are collected here from publication PMC4047056.

For this assay, the target named is Kv2.1 subunit (unlabeled) (human) (UniProt Q14721).

B1: Kv6.4 subunit (unlabeled) (natural protein)
chain: MPMPSRDGGLHPRHHHYGSHSPWSQLLSSPMETPSIKGLYYRRVRKVGALDASPVDLKKEILINVGGRRYLLPWSTLDRFPLSRLSKLRLCRSYEEIVQLCDDYDEDSQEFFFDRSPSAFGVIVSFLAAGKLVLLQEMCALSFQEELAYWGIEEAHLERCCLRKLLRKLEELEELAKLHREDVLRQQRETRRPASHSSRWGLCMNRLREMVENPQSGLPGKVFACLSILFVATTAVSLCVSTMPDLRAEEDQGECSRKCYYIFIVETICVAWFSLEFCLRFVQAQDKCQFFQGPLNIIDILAISPYYVSLAVSEEPPEDGERPSGSSYLEKVGLVLRVLRALRILYVMRLARHSLGLQTLGLTVRRCTREFGLLLLFLAVAITLFSPLVYVAEKESGRVLEFTSIPASYWWAIISMTTVGYGDMVPRSVPGQMVALSSILSGILIMAFPATSIFHTFSHSYLELKKEQEQLQARLRHLQNTGPASECELLDPHVASEHELMNDVNDLILEGPALPIMHM
In turn, B1 gave a midpoint of the voltage dependence of inactivation, V1/2, of whole-cell currents in HEK293 cells co-expressing Kv2.1 and Kv6.4 (Kv2.1 alone: −22.6 mV) of -59.3 mV.
